This is an account of results in article PMC13457854 (Cell Discovery, 2026).

In experiment [1] the target is T1, BTN3A1/BTN3A2 heterodimer (human, UniProt O00481 30-513; P78410 30-334).
T1 construct: BTN3A1, human; synthetic signal peptide fused to the N-terminus; BTN3A2, human; copies: 1 + 1
As to the kind of experiment: AUC; sedimentation velocity, 40,000 rpm, 20 °C, 25 mM HEPES pH 7.4, 150 mM NaCl, 0.02% GDN, absorbance at 280 nm; no HMBPP (3A2 complex also with 40 μM HMBPP: less of the high-mass species). Particulars: both partners purified.

Experiment [2] concerns the target T2, BTN3A1 (human, UniProt O00481 30-513).
T2 construct: BTN3A1, human, codon-optimised synthetic cDNA; Construct details are in the Supplementary Information; source: ExpiHEK293F, transfected; purified within the 3A2/3A3 complex (anti-Flag, Strep-Tactin XT, SEC)
Described as above. Particulars: both partners purified.

T2 sequence (O00481 30-513): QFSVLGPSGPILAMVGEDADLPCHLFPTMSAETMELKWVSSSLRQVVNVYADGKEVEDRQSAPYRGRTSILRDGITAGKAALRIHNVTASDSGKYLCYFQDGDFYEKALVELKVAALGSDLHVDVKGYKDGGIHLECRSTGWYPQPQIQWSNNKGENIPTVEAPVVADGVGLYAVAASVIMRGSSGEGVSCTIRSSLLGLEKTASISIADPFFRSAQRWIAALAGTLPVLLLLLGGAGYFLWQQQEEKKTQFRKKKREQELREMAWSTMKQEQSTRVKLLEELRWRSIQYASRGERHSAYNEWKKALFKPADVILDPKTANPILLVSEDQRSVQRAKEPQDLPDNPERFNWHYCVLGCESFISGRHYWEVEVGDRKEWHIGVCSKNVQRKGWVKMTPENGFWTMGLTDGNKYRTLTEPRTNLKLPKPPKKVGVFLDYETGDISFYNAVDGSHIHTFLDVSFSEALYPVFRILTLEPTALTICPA

B1: BTN2A1 (natural protein, human, UniProt Q7KYR7 29-527, looked up)
chain: QFIVVGPTDPILATVGENTTLRCHLSPEKNAEDMEVRWFRSQFSPAVFVYKGGRERTEEQMEEYRGRTTFVSKDISRGSVALVIHNITAQENGTYRCYFQEGRSYDEAILHLVVAGLGSKPLISMRGHEDGGIRLECISRGWYPKPLTVWRDPYGGVAPALKEVSMPDADGLFMVTTAVIIRDKSVRNMSCSINNTLLGQKKESVIFIPESFMPSVSPCAVALPIIVVILMIPIAVCIYWINKLQKEKKILSGEKEFERETREIALKELEKERVQKEEELQVKEKLQEELRWRRTFLHAVDVVLDPDTAHPDLFLSEDRRSVRRCPFRHLGESVPDNPERFDSQPCVLGRESFASGKHYWEVEVENVIEWTVGVCRDSVERKGEVLLIPQNGFWTLEMHKGQYRAVSSPDRILPLKESLCRVGVFLDYEAGDVSFYNMRDRSHIYTCPRSAFSVPVRPFFRLGCEDSPIFICPALTGANGVTVPEEGLTLHRVGTHQSL
notes: BTN2A1, human, codon-optimised synthetic cDNA; construct details are in the Supplementary Information; also called BTN2A1 homodimer; BTN2A1 dimer; source: ExpiHEK293F, transfected; purified within the 3A2/3A3 complex (anti-Flag, Strep-Tactin XT, SEC)
With B1, the binding result in experiment [1] is given as “binds”.

B2: BTN3A2 (natural protein)
chain: not shown
notes: BTN3A2, human, codon-optimised synthetic cDNA; Construct details are in the Supplementary Information; source: ExpiHEK293F, transfected; purified within the 3A2 complex (anti-Flag, Strep-Tactin XT, SEC)
Take B2: the binding result in experiment [2] is “binds”.
